Laboratory results as given in patent US20170260508A1 (FRED HUTCHINSON CANCER RESEARCH CENTER, published 2017).

B1: LILRB2 Ig2 domain expressed on 293T cells (receptor)
chain: AYPKPTLSAQPSPVVTSGGRVTLQCESQVAFGGFILCKEGEEEHPQCLNSQPHARGSSRAIFSVGPVSPNRRWSHRCYGYDLNSPYVWSSPSDLLELLVP
notes: The range is stated for the chimeric reporter constructs; also called 2nd Ig domain
B2: LILRB2 Ig3 domain expressed on 293T cells (receptor)
chain: VSKKPSLSVQPGPVVAPGESLTLQCVSDVGYDRFVLYKEGERDLRQLPGRQPQAGLSQANFTLGPVSRSYGGQYRCYGAHNLSSECSAPSDPLDILITGQ
notes: The range is stated for the chimeric reporter constructs; also called 3rd Ig domain
B3: LILRB2 Ig1 domain expressed on 293T cells (receptor)
chain: GTIPKPTLWAEPDSVITQGSPVTLSCQGSLEAQEYRLYREKKSASWITRIRPELVKNGQFHIPSITWEHTGRYGCQYYSRARWSELSDPLVLVMTG
notes: The range is stated for the chimeric reporter constructs; also called 1st Ig domain
B4: LILRB2 H92S on 293T cells (receptor)
chain: QTGTIPKPTLWAEPDSVITQGSPVTLSCQGSLEAQEYRLYREKKSASWITRIRPELVKNGQFHIPSITWESTGRYGCQYYSRARWSELSDPLVLVMTGAYPKPTLSAQPSPVVTSGGRVTLQCESQVAFGGFILCKEGEEEHPQCLNSQPHARGSSRAIFSVGPVSPNRRWSHRCYGYDLNSPYVWSSPSDLLELLVPGVSKKPSLSVQPGPVVAPGESLTLQCVSDVGYDRFVLYKEGERDLRQLPGRQPQAGLSQANFTLGPVSRSYGGQYRCYGAHNLSSECSAPSDPLDILITGQIRGTPFISVQPGPTVASGENVTLLCQSWRQFHTFLLTKAGAADAPLRLRSIHEYPKYQAEFPMSPVTSAHAGTYRCYGSLNSDPYLLSHPSEPLELVVSGPSMGSSPPPTGPISTPGPEDQPLTPTGSDPQSGLGRHLGVVIGILVAVVLLLLLLLLLFLILRHRRQGKHWTSTQRKADFQHPAGAVGPEPTDRGLQWRSSPAADAQEENLYAAVKDTQPEDGVEMDTRAAASEAPQDVTYAQLHSLTLRRKATEPPPSQEREPPAEPSIYATLAIH
B5: full-length LILRB2 G94D on 293T cells (receptor)
chain: QTGTIPKPTLWAEPDSVITQGSPVTLSCQGSLEAQEYRLYREKKSASWITRIRPELVKNGQFHIPSITWEHTDRYGCQYYSRARWSELSDPLVLVMTGAYPKPTLSAQPSPVVTSGGRVTLQCESQVAFGGFILCKEGEEEHPQCLNSQPHARGSSRAIFSVGPVSPNRRWSHRCYGYDLNSPYVWSSPSDLLELLVPGVSKKPSLSVQPGPVVAPGESLTLQCVSDVGYDRFVLYKEGERDLRQLPGRQPQAGLSQANFTLGPVSRSYGGQYRCYGAHNLSSECSAPSDPLDILITGQIRGTPFISVQPGPTVASGENVTLLCQSWRQFHTFLLTKAGAADAPLRLRSIHEYPKYQAEFPMSPVTSAHAGTYRCYGSLNSDPYLLSHPSEPLELVVSGPSMGSSPPPTGPISTPGPEDQPLTPTGSDPQSGLGRHLGVVIGILVAVVLLLLLLLLLFLILRHRRQGKHWTSTQRKADFQHPAGAVGPEPTDRGLQWRSSPAADAQEENLYAAVKDTQPEDGVEMDTRAAASEAPQDVTYAQLHSLTLRRKATEPPPSQEREPPAEPSIYATLAIH
notes: also called single mutation in G94
B6: full-length LILRB2 R95E on 293T cells (receptor)
chain: QTGTIPKPTLWAEPDSVITQGSPVTLSCQGSLEAQEYRLYREKKSASWITRIRPELVKNGQFHIPSITWEHTGEYGCQYYSRARWSELSDPLVLVMTGAYPKPTLSAQPSPVVTSGGRVTLQCESQVAFGGFILCKEGEEEHPQCLNSQPHARGSSRAIFSVGPVSPNRRWSHRCYGYDLNSPYVWSSPSDLLELLVPGVSKKPSLSVQPGPVVAPGESLTLQCVSDVGYDRFVLYKEGERDLRQLPGRQPQAGLSQANFTLGPVSRSYGGQYRCYGAHNLSSECSAPSDPLDILITGQIRGTPFISVQPGPTVASGENVTLLCQSWRQFHTFLLTKAGAADAPLRLRSIHEYPKYQAEFPMSPVTSAHAGTYRCYGSLNSDPYLLSHPSEPLELVVSGPSMGSSPPPTGPISTPGPEDQPLTPTGSDPQSGLGRHLGVVIGILVAVVLLLLLLLLLFLILRHRRQGKHWTSTQRKADFQHPAGAVGPEPTDRGLQWRSSPAADAQEENLYAAVKDTQPEDGVEMDTRAAASEAPQDVTYAQLHSLTLRRKATEPPPSQEREPPAEPSIYATLAIH
notes: also called single mutation in R95
B7: LILRB2 G392D on 293T cells (receptor)
chain: QTGTIPKPTLWAEPDSVITQGSPVTLSCQGSLEAQEYRLYREKKSASWITRIRPELVKNGQFHIPSITWEHTGRYGCQYYSRARWSELSDPLVLVMTGAYPKPTLSAQPSPVVTSGGRVTLQCESQVAFGGFILCKEGEEEHPQCLNSQPHARGSSRAIFSVGPVSPNRRWSHRCYGYDLNSPYVWSSPSDLLELLVPGVSKKPSLSVQPGPVVAPGESLTLQCVSDVGYDRFVLYKEGERDLRQLPGRQPQAGLSQANFTLGPVSRSYGGQYRCYGAHNLSSECSAPSDPLDILITGQIRGTPFISVQPGPTVASGENVTLLCQSWRQFHTFLLTKAGAADAPLRLRSIHEYPKYQAEFPMSPVTSAHADTYRCYGSLNSDPYLLSHPSEPLELVVSGPSMGSSPPPTGPISTPGPEDQPLTPTGSDPQSGLGRHLGVVIGILVAVVLLLLLLLLLFLILRHRRQGKHWTSTQRKADFQHPAGAVGPEPTDRGLQWRSSPAADAQEENLYAAVKDTQPEDGVEMDTRAAASEAPQDVTYAQLHSLTLRRKATEPPPSQEREPPAEPSIYATLAIH
B8: LILRB2 T93A on 293T cells (receptor)
chain: QTGTIPKPTLWAEPDSVITQGSPVTLSCQGSLEAQEYRLYREKKSASWITRIRPELVKNGQFHIPSITWEHAGRYGCQYYSRARWSELSDPLVLVMTGAYPKPTLSAQPSPVVTSGGRVTLQCESQVAFGGFILCKEGEEEHPQCLNSQPHARGSSRAIFSVGPVSPNRRWSHRCYGYDLNSPYVWSSPSDLLELLVPGVSKKPSLSVQPGPVVAPGESLTLQCVSDVGYDRFVLYKEGERDLRQLPGRQPQAGLSQANFTLGPVSRSYGGQYRCYGAHNLSSECSAPSDPLDILITGQIRGTPFISVQPGPTVASGENVTLLCQSWRQFHTFLLTKAGAADAPLRLRSIHEYPKYQAEFPMSPVTSAHAGTYRCYGSLNSDPYLLSHPSEPLELVVSGPSMGSSPPPTGPISTPGPEDQPLTPTGSDPQSGLGRHLGVVIGILVAVVLLLLLLLLLFLILRHRRQGKHWTSTQRKADFQHPAGAVGPEPTDRGLQWRSSPAADAQEENLYAAVKDTQPEDGVEMDTRAAASEAPQDVTYAQLHSLTLRRKATEPPPSQEREPPAEPSIYATLAIH
B9: LILRB2 Q99R on 293T cells (receptor)
chain: QTGTIPKPTLWAEPDSVITQGSPVTLSCQGSLEAQEYRLYREKKSASWITRIRPELVKNGQFHIPSITWEHTGRYGCRYYSRARWSELSDPLVLVMTGAYPKPTLSAQPSPVVTSGGRVTLQCESQVAFGGFILCKEGEEEHPQCLNSQPHARGSSRAIFSVGPVSPNRRWSHRCYGYDLNSPYVWSSPSDLLELLVPGVSKKPSLSVQPGPVVAPGESLTLQCVSDVGYDRFVLYKEGERDLRQLPGRQPQAGLSQANFTLGPVSRSYGGQYRCYGAHNLSSECSAPSDPLDILITGQIRGTPFISVQPGPTVASGENVTLLCQSWRQFHTFLLTKAGAADAPLRLRSIHEYPKYQAEFPMSPVTSAHAGTYRCYGSLNSDPYLLSHPSEPLELVVSGPSMGSSPPPTGPISTPGPEDQPLTPTGSDPQSGLGRHLGVVIGILVAVVLLLLLLLLLFLILRHRRQGKHWTSTQRKADFQHPAGAVGPEPTDRGLQWRSSPAADAQEENLYAAVKDTQPEDGVEMDTRAAASEAPQDVTYAQLHSLTLRRKATEPPPSQEREPPAEPSIYATLAIH
B10: LILRB2 T393E on 293T cells (receptor)
chain: QTGTIPKPTLWAEPDSVITQGSPVTLSCQGSLEAQEYRLYREKKSASWITRIRPELVKNGQFHIPSITWEHTGRYGCQYYSRARWSELSDPLVLVMTGAYPKPTLSAQPSPVVTSGGRVTLQCESQVAFGGFILCKEGEEEHPQCLNSQPHARGSSRAIFSVGPVSPNRRWSHRCYGYDLNSPYVWSSPSDLLELLVPGVSKKPSLSVQPGPVVAPGESLTLQCVSDVGYDRFVLYKEGERDLRQLPGRQPQAGLSQANFTLGPVSRSYGGQYRCYGAHNLSSECSAPSDPLDILITGQIRGTPFISVQPGPTVASGENVTLLCQSWRQFHTFLLTKAGAADAPLRLRSIHEYPKYQAEFPMSPVTSAHAGEYRCYGSLNSDPYLLSHPSEPLELVVSGPSMGSSPPPTGPISTPGPEDQPLTPTGSDPQSGLGRHLGVVIGILVAVVLLLLLLLLLFLILRHRRQGKHWTSTQRKADFQHPAGAVGPEPTDRGLQWRSSPAADAQEENLYAAVKDTQPEDGVEMDTRAAASEAPQDVTYAQLHSLTLRRKATEPPPSQEREPPAEPSIYATLAIH
B11: LILRB2 MHC-S1 mutant (R59A/Y61A) on 293T cells (receptor)
chain: QTGTIPKPTLWAEPDSVITQGSPVTLSCQGSLEAQEYALAREKKSASWITRIRPELVKNGQFHIPSITWEHTGRYGCQYYSRARWSELSDPLVLVMTGAYPKPTLSAQPSPVVTSGGRVTLQCESQVAFGGFILCKEGEEEHPQCLNSQPHARGSSRAIFSVGPVSPNRRWSHRCYGYDLNSPYVWSSPSDLLELLVPGVSKKPSLSVQPGPVVAPGESLTLQCVSDVGYDRFVLYKEGERDLRQLPGRQPQAGLSQANFTLGPVSRSYGGQYRCYGAHNLSSECSAPSDPLDILITGQIRGTPFISVQPGPTVASGENVTLLCQSWRQFHTFLLTKAGAADAPLRLRSIHEYPKYQAEFPMSPVTSAHAGTYRCYGSLNSDPYLLSHPSEPLELVVSGPSMGSSPPPTGPISTPGPEDQPLTPTGSDPQSGLGRHLGVVIGILVAVVLLLLLLLLLFLILRHRRQGKHWTSTQRKADFQHPAGAVGPEPTDRGLQWRSSPAADAQEENLYAAVKDTQPEDGVEMDTRAAASEAPQDVTYAQLHSLTLRRKATEPPPSQEREPPAEPSIYATLAIH

Each binder was assayed against T1, Angptl2-FLAG, full-length human Angptl2 secreted from transfected 293T cells (human, UniProt Q9UKU9 23-493) (assay: flow cytometry, Angptl2 on 293T cells expressing the domain).
T1 construct: Runs partly as a high molecular weight (>250 kD) multimer; also called full-length Angptl2; FLAG-tagged Angptl2; not shown: FLAG tag at the C terminus
T1 sequence: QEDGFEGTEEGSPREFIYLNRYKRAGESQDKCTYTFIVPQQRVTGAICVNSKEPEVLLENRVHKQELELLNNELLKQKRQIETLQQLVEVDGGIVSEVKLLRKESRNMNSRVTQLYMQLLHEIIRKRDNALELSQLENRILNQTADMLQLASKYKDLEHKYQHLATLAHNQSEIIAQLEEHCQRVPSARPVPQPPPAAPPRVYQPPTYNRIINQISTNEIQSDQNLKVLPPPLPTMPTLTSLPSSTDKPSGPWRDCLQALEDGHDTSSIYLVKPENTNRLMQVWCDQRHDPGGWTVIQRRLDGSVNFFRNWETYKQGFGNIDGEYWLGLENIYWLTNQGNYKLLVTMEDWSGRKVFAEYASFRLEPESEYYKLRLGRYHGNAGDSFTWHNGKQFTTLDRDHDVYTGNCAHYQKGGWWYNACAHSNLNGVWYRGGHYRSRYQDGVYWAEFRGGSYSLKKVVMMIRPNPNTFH
Procedure: (§1) Flow cytometry. […] Cells were harvested at 48 h for analysis. […] Anti-LILRB2-PE was used as indicated. Cells were analyzed using either a FACSCalibur or FACSAria instrument (Becton Dickinson).
LILRB2 contains four extracellular immunoglobulin (Ig)-like domains. Takai et al., J Biomed Biotechnol. 2011; 2011:275302. […] To test this hypothesis, a number of domain and site-specific mutations of LILRB2 were generated for the flow cytometry-based cell surface ligand binding assay and chimeric reporter assay.

Row | Binder | binding result
1 | B1 | no binding
2 | B2 | no binding
3 | B3 | no binding

What follows are binders tested against T1, Angptl2-FLAG, full-length human Angptl2 … (assay: flow cytometry, ligand on mutant LILRB2 (FIG. 6G)).
Procedure: as §1

Row | Binder | binding result
4 | B4 | binds
5 | B5 | binds
6 | B6 | binds
7 | B7 | binds
8 | B8 | binds
9 | B9 | binds
10 | B10 | binds
11 | B11 | binds
